The results in this text go back to patent publication US20160002599A1.

The test deals with von Willebrand factor (vWF). The test can be described thus: cell-based or functional assay.

Several values for one entry are separate records, joined by “and”; a condition that tells them apart may be missing. Equal values may be shown once.

von Willebrand factor (vWF), sequence (P04275 764-2813): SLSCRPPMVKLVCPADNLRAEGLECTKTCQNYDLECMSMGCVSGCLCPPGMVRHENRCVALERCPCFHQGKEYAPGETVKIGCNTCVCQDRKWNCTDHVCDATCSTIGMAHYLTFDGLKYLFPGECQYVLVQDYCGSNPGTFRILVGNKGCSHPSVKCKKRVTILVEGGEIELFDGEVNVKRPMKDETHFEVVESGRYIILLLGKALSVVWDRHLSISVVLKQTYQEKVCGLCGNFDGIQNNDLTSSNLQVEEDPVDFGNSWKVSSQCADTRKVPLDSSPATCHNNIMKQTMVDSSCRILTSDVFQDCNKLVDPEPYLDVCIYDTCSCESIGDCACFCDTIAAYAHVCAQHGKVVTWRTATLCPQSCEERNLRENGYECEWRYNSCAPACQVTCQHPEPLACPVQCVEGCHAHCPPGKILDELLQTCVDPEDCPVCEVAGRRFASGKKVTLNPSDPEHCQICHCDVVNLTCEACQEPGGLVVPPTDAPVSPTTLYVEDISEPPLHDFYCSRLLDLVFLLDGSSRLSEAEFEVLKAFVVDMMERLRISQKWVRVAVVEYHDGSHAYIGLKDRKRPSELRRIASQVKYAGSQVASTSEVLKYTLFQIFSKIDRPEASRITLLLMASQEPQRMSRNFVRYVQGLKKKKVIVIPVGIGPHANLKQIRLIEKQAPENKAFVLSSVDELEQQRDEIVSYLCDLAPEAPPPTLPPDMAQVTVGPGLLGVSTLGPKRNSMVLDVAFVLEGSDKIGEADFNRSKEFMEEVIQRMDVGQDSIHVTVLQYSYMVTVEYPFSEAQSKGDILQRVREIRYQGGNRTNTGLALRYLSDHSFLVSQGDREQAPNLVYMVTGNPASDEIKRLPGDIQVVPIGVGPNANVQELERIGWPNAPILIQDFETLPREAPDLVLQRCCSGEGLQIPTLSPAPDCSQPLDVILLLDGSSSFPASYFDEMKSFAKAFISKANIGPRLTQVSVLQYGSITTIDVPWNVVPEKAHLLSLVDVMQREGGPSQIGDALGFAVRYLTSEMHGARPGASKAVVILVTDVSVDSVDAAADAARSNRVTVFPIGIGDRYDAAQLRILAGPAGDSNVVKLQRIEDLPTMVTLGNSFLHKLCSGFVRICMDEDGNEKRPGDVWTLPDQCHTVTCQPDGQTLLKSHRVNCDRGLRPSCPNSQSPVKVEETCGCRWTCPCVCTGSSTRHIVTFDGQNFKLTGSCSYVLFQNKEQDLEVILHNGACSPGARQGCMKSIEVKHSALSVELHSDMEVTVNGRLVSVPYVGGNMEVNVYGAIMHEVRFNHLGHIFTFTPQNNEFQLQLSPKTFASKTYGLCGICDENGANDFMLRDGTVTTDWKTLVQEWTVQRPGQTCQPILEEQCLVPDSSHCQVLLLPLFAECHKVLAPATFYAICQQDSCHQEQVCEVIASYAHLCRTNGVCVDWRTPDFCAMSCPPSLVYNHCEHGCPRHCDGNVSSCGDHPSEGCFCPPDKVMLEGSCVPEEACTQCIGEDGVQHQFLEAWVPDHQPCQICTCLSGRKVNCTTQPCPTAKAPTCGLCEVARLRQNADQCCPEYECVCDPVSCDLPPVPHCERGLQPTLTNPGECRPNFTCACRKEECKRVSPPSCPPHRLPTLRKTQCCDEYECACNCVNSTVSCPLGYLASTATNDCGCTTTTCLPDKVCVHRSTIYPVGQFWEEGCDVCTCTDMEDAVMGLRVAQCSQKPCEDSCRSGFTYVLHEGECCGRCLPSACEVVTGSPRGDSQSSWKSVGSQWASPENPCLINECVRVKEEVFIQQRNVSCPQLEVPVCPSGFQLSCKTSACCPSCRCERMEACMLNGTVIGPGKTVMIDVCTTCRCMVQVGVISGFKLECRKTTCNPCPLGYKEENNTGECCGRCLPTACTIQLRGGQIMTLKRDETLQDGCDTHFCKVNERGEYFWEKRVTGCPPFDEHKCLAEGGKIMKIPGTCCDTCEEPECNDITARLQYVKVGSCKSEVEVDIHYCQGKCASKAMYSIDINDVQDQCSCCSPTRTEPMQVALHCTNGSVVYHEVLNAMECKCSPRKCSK

As to “CD42b (from UniProt P07359 17-652) (receptor)”, the platelets bound to the channel (chamber coated with 10 ug/mL vWF, flow rate 1600 s-1) is 62.3% and 75.8%.
